The target in this assay is HPV16 pseudovirions (human papillomavirus type 16) (UniProt P03101).
In the case of “RTD-4 (from UniProt P82270 65-76) (peptide)”, the IC50 of inhibition of HPV16 PsV infection of HeLa cells (PsV pretreated with the defensin) worked out at 101 µM.

On to “Rhesus Theta Defensin-1 (from UniProt P82270 65-76; P82271 65-76) (peptide)”, for which the IC50 of inhibition of HPV16 PsV infection of HeLa cells (PsV pretreated with the defensin) came out at 14 µM.

Take α-defensin HD5 (peptide): the IC50 of inhibition of HPV16 PsV infection of HeLa cells (PsV pretreated with the defensin) worked out at 26 µM.

The record behind these values is paper PMC7586039.
